The target in assay [1] is mouse NKP46 (NCR1) protein, NP_034876.2 (mouse) (UniProt Q8C567). In words: flow cytometry, spleen NK cells of C57BL/6 wild-type mouse. Background: In flow cytometry, cells or beads pass a laser one at a time.
For assay [2] the target is unchanged. The description is as above. The source holds these as a separate data set.
Assay [3] concerns the target humanized NKP46 protein (engineered mouse NKP46 after humanization) (human/mouse chimera (human NKP46 amino acids 2-253 replacing mouse 2-253; rest mouse)). In words: flow cytometry, spleen NK cells of NKP46 humanized homozygous mouse.
Assay [4] deals with mouse NKP46 (NCR1) protein, NP_034876.2 (mouse) (UniProt Q8C567). In words: flow cytometry, peripheral blood NK cells of C57BL/6 wild-type mouse.
Assay [5] shares this target. The description is as above. This is another data set of the same source.
For assay [6], the target named is humanized NKP46 protein (engineered mouse NKP46 after humanization) (human/mouse chimera (human NKP46 amino acids 2-253 replacing mouse 2-253; rest mouse)). In words: flow cytometry, spleen NK cells of NKP46 humanized heterozygous mouse.
Assay [7] shares this target. In words: flow cytometry, peripheral blood NK cells of NKP46 humanized homozygous mouse.
Assay [8] shares this target. In words: flow cytometry, peripheral blood NK cells of NKP46 humanized heterozygous mouse.
Assay [9] addresses mouse NKP46 (NCR1) protein, NP_034876.2 (mouse) (UniProt Q8C567). In words: flow cytometry, spleen NK cells of NKP46 humanized heterozygous mouse (cells carry mouse and humanized NKP46).
Assay [10] shares this target. Briefly: flow cytometry, peripheral blood NK cells of NKP46 humanized heterozygous mouse (cells carry mouse and humanized NKP46).

UniProt Q8C567, sequence (Q8C567 17-325 R131Q): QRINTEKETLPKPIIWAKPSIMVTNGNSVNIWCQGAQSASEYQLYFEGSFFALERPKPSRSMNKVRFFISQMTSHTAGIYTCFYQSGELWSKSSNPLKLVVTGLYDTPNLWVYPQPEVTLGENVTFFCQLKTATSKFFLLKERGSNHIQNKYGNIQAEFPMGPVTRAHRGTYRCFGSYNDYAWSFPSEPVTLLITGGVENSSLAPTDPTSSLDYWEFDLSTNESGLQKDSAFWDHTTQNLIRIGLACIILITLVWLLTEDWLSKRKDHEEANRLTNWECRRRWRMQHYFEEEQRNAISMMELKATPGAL
humanized NKP46 protein (engineered mouse NKP46 after humanization) (human/mouse chimera (human NKP46 amino acids 2-253 replacing mouse 2-253; rest mouse)), sequence (chain, as listed by the source mutant limits assumed): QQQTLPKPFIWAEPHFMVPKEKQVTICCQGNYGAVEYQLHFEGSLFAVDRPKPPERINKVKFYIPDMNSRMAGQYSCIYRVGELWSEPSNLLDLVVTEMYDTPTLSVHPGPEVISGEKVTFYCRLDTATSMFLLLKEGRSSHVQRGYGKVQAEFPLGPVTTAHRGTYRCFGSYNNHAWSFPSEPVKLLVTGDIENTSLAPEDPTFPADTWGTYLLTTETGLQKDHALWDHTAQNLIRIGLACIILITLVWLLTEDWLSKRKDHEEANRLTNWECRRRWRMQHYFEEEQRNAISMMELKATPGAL

Take “PE anti-human CD335 (NKP46) Antibody (BioLegend, Catalog number: 331907)”: the % mCD45+ mNK1.1+ hNKP46+ cells in [1] is 0.14%; in assay [2] it was 0.11%; in [3] it was 2.79%; in [4] it was 0.056%; in assay [5], 0.034%; in assay [6] it was 4.08%. In addition, the % mCD45+ mNK1.1+ hNKP46+ cells was found to be 3.55% in [7] and 4.95% in assay [8].
With “APC anti-mouse CD335 (NKP46) Antibody (BioLegend, Catalog number: 137607)”, the % mCD45+ mNK1.1+ mNKP46+ cells in assay [1] was determined as 4.21%; in assay [2], 2.25%; in assay [3], 0.035%; in [4], 3.96%; in assay [5] it was 2.81%; in [7], 0.009%. The % mCD45+ mNK1.1+ mNKP46+ cells in assay [9] stood at 3.44%; in [10], 4.33%.

These data come from patent publication US20250143272A1.
